Measured values published in US20220127365A1 (DREN BIO, published 2022).
Each block holds one binder with its values, some of them ahead of it.

Tests used:
human CD94 [1] = biological target: T1, human CD94 (human, UniProt Q13241 1-179); test: flow cytometry titration of Alexa Fluor 647 conjugate on CLPD-NK patient cells (CD3-CD16+); CLPD-NK cells
T1 construct: whole, on cells; Endogenous CD94 on primary cells (healthy-donor PBMC NK cells, CLPD-NK and T-LGLL patient cells), where it pairs with NKG2A or NKG2C; also called KLRD1; Natural killer cells antigen CD94
T1 sequence (looked up): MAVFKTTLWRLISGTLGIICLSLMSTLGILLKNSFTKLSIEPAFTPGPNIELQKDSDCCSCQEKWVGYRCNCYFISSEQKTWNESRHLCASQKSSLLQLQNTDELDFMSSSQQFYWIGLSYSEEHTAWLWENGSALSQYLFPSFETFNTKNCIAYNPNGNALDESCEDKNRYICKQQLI
Protocol: (§1) The ATX-130 antibody was produced in Expi-CHO cells cultured in the presence of kifunensine, a potent inhibitor of the mannosidase I enzyme, which is used to produce ATX-130-KIF mimicking non-fucosylated antibody. PBMCs of healthy donors were used for antibody staining ATX-130 antibody was titrated from 50 nM to 0.02 nM. Secondary anti-human antibody labeled with Alexa Fluor 647 was used to detect binding on CD3−CD56 bright NK cells. ATX-130-KIF antibody conjugated with Alexa Fluor 647 was titrated from 50 nM to 0.02 nM. T-LGLL cells were identified using CD3+CD16+ gating, while CLPD-NK cells were identified using CD3−CD16+ gating strategy. Titration curves and EC50 were generated using Graphpad Prism. […] Fluorescently labeled human IgG1-KIF isotype-KIF antibody was used as control. Arrows indicate ATX-130 and Human IgG1-KIF data points.
(§2) The affinity of the antibody clones was assessed by flow cytometry analysis. ATX-130-KIF mimicking non-fucosylated antibody was produced by culturing Expi-CHO cells cultured in the presence of kifunensine, a potent inhibitor of the mannosidase I enzyme. […] Thus, ATX-130 and ATX-130-KIF have similar binding affinity on primary human NK cells, cynomolgus NK cells, CLPD-NK cells, and T-LGLL cells.

cynomolgus CD94 [2] = biological target: cynomolgus CD94 (cynomolgus monkey); test: cell-based or functional assay
human CD94 [3] = biological target: T1, human CD94; test: cell-based or functional assay
human CD94 [4] = biological target: T1, human CD94; test: flow cytometry titration of Alexa Fluor 647 conjugate on T-LGLL patient cells (CD3+CD16+); T-LGLL cells
Protocol: as §1, §2

cynomolgus CD94 [5] = biological target: T2, cynomolgus CD94 (cynomolgus monkey); test: flow cytometry titration of Alexa Fluor 647 conjugate (50 nM to 0.02 nM) on primary cynomolgus NK cells
T2 construct: whole, on cells; The construct expressed in HEK293 cells is not described further; also called cyno CD94; cynomolgus monkey CD94
Protocol: as §1, §2

[6] = biological target: T3, CD94/NKG2C heterodimer on BaF3 cells (UniProt Q13241 1-179; P26717 1-231, limits assumed); test: flow cytometry titration (50 nM to 0.02 nM) on BaF3 cells, anti-human AF647 secondary antibody; BaF3 cells overexpressing CD94/NKG2C heterodimer
T3 construct: whole, on cells
Protocol: (§3) BaF3 cells overexpressing CD94 homodimer (top panel), CD94/NKG2A heterodimer (lower left panel), and CD94/NKG2C heterodimer (lower right panel) were incubated with unconjugated ATX-130 antibody in a dilution series from 50 nM to 0.02 nM. Secondary anti-human antibody labeled with Alexa Fluor 647 was used to detect ATX-130 binding on cells.
(§4) The affinity of the antibody clone ATX-130 on CD94 homodimer and heterodimer was also assessed by flow cytometry analysis.

cynomolgus CD94 [7] = biological target: T2, cynomolgus CD94; test: flow cytometry on HEK293 cells overexpressing cynomolgus CD94; unconjugated antibody in a dilution series, Alexa Fluor 647 anti-human secondary antibody
Protocol: For human NK cell binding, PBMCs were freshly isolated from healthy donors and incubated with unconjugated antibodies in a dilution series from 100 nM to 0.046 nM. Secondary anti-human antibody labeled with Alexa Fluor 647 was used to detect binding on CD3−CD56bright NK cells. For cynomolgus CD94 binding, HEK293 cells overexpressing cynomolgus CD94 were incubated with unconjugated antibodies in a dilution series from 100 nM to 0.046 nM. Secondary anti-human antibody labeled with Alexa Fluor 647 was used to detect binding on the cells.

[8] = biological target: T4, CD94 homodimer on BaF3 cells (UniProt Q13241 1-179); test: flow cytometry titration (50 nM to 0.02 nM) on BaF3 cells, anti-human AF647 secondary antibody; BaF3 cells overexpressing CD94 homodimer
T4 construct: whole, on cells
T4 sequence (looked up): T1 sequence (looked up)
Protocol: as §3, §4

[9] = biological target: T5, CD94/NKG2A heterodimer on BaF3 cells (UniProt Q13241 1-179; P26715 1-233, limits assumed); test: flow cytometry titration (50 nM to 0.02 nM) on BaF3 cells, anti-human AF647 secondary antibody; BaF3 cells overexpressing CD94/NKG2A heterodimer
T5 construct: whole, on cells
Protocol: as §3, §4

human CD94 [10] = biological target: T1, human CD94; test: HLA-E tetramer blocking on healthy-donor PBMCs, flow cytometry; competitor HLA-E tetramer
Protocol: (§5) Healthy donor PBMCs were seeded in 96-well plates at a density of 100,000 cells per well, incubated with human Fc block (Biolegend) and cell viability dye (Thermo Fisher) for 30 minutes on ice and protected from light. The cells were washed once with FACS buffer (PBS with 2% IgG low FBS). anti-CD94 antibodies at EC80 concentrations were incubated with cells for 30 minutes on ice and protected from light. After incubation with the anti-CD94 antibodies, the cells were washed and incubated with HLA-E tetramer PE (Creative Biolabs), anti-CD3 pacific blue-labelled, and anti-CD56 FITC-labelled antibodies (Biolegend) for 30 minutes on ice and protected from light. The cells then received a final wash in FACS buffer before quantification on the Cytoflex (Beckman Coulter). All data acquisition and fluorescence compensation were performed using CytoFlex (Beckman Coulter, Atlanta, Ga.). Data analysis was performed using FlowJo software. NK cells were identified through gating on lymphocytes on the forward and side scatter, followed by doublet and dead cell exclusion, and gated on the CD3−CD56+ population. HLA-E expression was then quantified on the CD3−CD56+NK cell population. Percent blocking was calculated as 100−((percent HLA-E positive for anti-CD94 antibody)/(percent HLA-E positive for isotype)*100).
Healthy donor PBMCs were incubated with anti-CD94 antibodies. PE labeled HLA-E tetramer was then incubated with cells and antibody mixture and detected by flow cytometry.
Percent blocking was calculated as 100−((percent HLA-E positive for anti-CD94 antibody)/(percent HLA-E positive for isotype)*100). If an antibody blocked more than 20% of HLA-E binding, it was considered a ligand-blocking antibody.

human CD94 [11] = biological target: T1, human CD94; test: flow cytometry titration (100 nM to 0.046 nM) on healthy-donor PBMCs, CD3-CD56bright NK cells; column 'Affinity on human NK cells (nM)'
human CD94 [12] = biological target: T1, human CD94; test: competition assay, flow cytometry on NK cells of healthy donor PBMCs; 18H3-AF647 titrated, concurrently Mouse IgG1 control (or 1M4 at 8.5 µg/ml)
Protocol: (§6) FIGS. 5A-5B show the results of competition assays performed for 18H3 anti-CD94 antibody evaluation. For all competition assays, 18H3 was incubated with PBMCs at a concentration of 1.3 μg/ml. […] Commercially available anti-CD94 antibodies were titrated and incubated with PBMCs concurrently with 18H3. […] To test competition between 18H3 and 1M4/1E4, 1M4 and 1E4 were incubated with cells at concentrations of 8.5 μg/ml and 11 μg/ml, respectively. 18H3 was fluorescently tagged with AF647 and incubated with cells concurrently with […].
(§7) Healthy donor PBMCs were seeded in 96-well plates at a density of 100,000 cells per well, incubated with human Fc block (Biolegend) and cell viability dye (Thermo Fisher) for 30 minutes on ice and protected from light. The cells were washed once with FACS buffer (PBS with 2% IgG low FBS). Unconjugated anti-CD94 antibodies at EC80 concentrations, CD3 FITC and CD56 PE antibodies, and APC-labeled anti-CD94 antibodies were incubated with cells for 30 minutes on ice and protected from light. The cells then received a final wash in FACS buffer before quantification on the Cytoflex (Beckman Coulter). All data acquisition and fluorescence compensation were performed using CytoFlex (Beckman Coulter, Atlanta, Ga.). Data analysis was performed using FlowJo software. […] Anti-CD94 APC was then quantified on the CD3−CD56+NK cell population. […]

human CD94 [13] = biological target: T1, human CD94; test: table column 'HLA-E blocking'; flow cytometry on NK cells of healthy donor PBMCs, antibody at saturating concentration, blocked ligand PE labeled HLA-E tetramer; percent blocking = 100-((percent HLA-E positive with antibody)/(percent HLA-E positive with isotype)*100)
Protocol: FIGS. 4A & 4B show the results of HLA-E tetramer blocking assays performed with anti-CD94 and commercially available anti-CD94 antibodies using flow cytometry. Healthy donor PBMCs were incubated with anti-CD94 antibodies. PE labeled HLA-E tetramer was then incubated with the cell and antibody mixture, and detected using flow cytometry. For HP-3B1, 131412, 12K45, DX22, 1M4 and 1E4, 2.5 μl of HLA-E tetramer reagent was used, while 5 μl was used for 18H3 and HP-3D9. Saturating concentrations of each antibody was used in this assay. The percent blocking was calculated as 100−((percent HLA-E positive for anti-CD94 antibody)/(percent HLA-E positive for isotype)*100).
as §5

human CD94 [14] = biological target: T1, human CD94; test: flow cytometry titration (100 nM to 0.046 nM) on healthy-donor PBMCs, gated NK cells; EC50 from GraphPad Prism
Protocol: Peripheral blood monocuclear cells (PBMCs) of healthy donor HD-40 were used for antibody staining. 18H3 antibody was titrated from 100 nM to 0.046 nM in 1:3 dilutions and incubated with PBMCs. CD3 and CD56 antibodies were used to identify NK cells on the flow scatter. 18H3 antibody binding on […] and CD56 bright NK cells was used to assess affinity of 18H3. Titration curves and EC50 were generated using Graphpad Prism. […] Human IgG1 isotype control with secondary antibody (hIgG1) and goat (Fab)2 fragment anti-human Fcy-specific secondary antibody AF647 only (2ndary Ab) were used as controls.
Healthy donor PBMCs were seeded in 96 well plates at a density of 100,000 cells per well, incubated with human Fc block (Biolegend) and cell viability dye (Thermo Fisher) for 30 minutes on ice and protected from light. […] After incubation, the cells received a final wash in FACS buffer before quantification on the Cytoflex (Beckman Coulter). All data acquisition and fluorescence compensation were performed using CytoFlex (Beckman Coulter, Atlanta, Ga.). […] CD94 expression was then quantified on the CD3−CD56+NK cell population. […]
The affinity of the antibody clones was also assessed by flow cytometry analysis.

human CD94 [15] = biological target: T1, human CD94; test: competition assay, flow cytometry on NK cells of healthy donor PBMCs; 18H3-AF647 titrated in the presence of 1E4 at 11 µg/ml
Protocol: as §6, §7

T5 sequence (P26715 whole entry, one chain of several): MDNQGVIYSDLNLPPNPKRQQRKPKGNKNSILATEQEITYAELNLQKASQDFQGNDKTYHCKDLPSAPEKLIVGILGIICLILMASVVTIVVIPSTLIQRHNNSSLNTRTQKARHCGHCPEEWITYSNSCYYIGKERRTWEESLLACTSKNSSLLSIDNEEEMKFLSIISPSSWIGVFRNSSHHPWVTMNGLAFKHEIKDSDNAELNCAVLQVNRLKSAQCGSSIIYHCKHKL
T3 sequence (P26717 whole entry, one chain of several): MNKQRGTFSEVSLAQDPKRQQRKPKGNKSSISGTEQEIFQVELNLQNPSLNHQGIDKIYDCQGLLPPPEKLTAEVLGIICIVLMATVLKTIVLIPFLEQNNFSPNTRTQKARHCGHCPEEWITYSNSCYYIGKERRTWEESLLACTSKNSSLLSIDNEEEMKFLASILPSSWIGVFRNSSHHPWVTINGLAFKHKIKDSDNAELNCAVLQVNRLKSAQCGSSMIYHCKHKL

EC50 (human CD94 [1]): 1.4 nM | IC50 of cynomolgus NK cell depletion, ADCC assay with cynomolgus PBMCs (cynomolgus CD94 [2]): 0.3 ng/mL | IC50 of CLPD-NK leukemic cell depletion, ADCC assay with patient PBMCs (human CD94 [3]): 0.6 ng/mL | IC50 of T-LGLL leukemic cell depletion, ADCC assay with patient PBMCs (human CD94 [3]): 0.2 ng/mL | IC50 of human NK cell depletion, ADCC assay with healthy donor PBMCs (human CD94 [3]): 0.8 ng/mL | EC50 (human CD94 [4]): 3 nM | EC50 (cynomolgus CD94 [5]): 1 nM
B1: ATX-130-KIF (antibody, human IgG1, V domains shown)
VH: EVQLLESGGGLVKPGGSLRLSCAASGFTFSSYSMNWVRQAPGKGLEWVSSISTSSNFIYYADSVKGRFTISRDNAKNSLYLQMNSLRAEDTAVYYCARDLGRYYYYMDVWGKGTTVTVSS
VL: DIVMTQSPSSLSASVGDRVTITCRASQSISSWLAWYQQKPGKAPKSLIYAASSLQSGVPSKFSGSGSGTDFTLTISSLQPEDVATYYCQKYNSAPFTFGPGTKVDIK
notes: also called KIF-treated ATX-130; ATX-130-KIF Alexa Fluor 647

EC50 [6]: 1.8 nM | EC50 (read off the curve) (cynomolgus CD94 [7]): ~0.7 nM | EC50 [8]: 0.3 nM | EC50 [9]: 0.8 nM | percent HLA-E blocking (human CD94 [10]): 0% | EC50 (human CD94 [11]): 0.6 nM
B2: anti-CD94 antibody ATX-130 (antibody, human IgG1, V domains shown)
VH: B1 VH
VL: B1 VL
notes: also called hATX-130

EC50 (read off the curve) (human CD94 [12]): ~0.8 nM | HLA-E blocking (human CD94 [13]): 0% | EC50 (human CD94 [14]): 2.6 nM | EC50 (read off the curve) (human CD94 [15]): ~3 nM
B3: anti-CD94 antibody 18H3 (antibody, V domains shown)
VH: EVQLVQSGAEVKKPGESLKISCKGSGYRFTSYWIGWVRQMPGKGLEWMGIIYPGDSDTRYSPSFQGQVIISADKSITTAFLQWSSLKASDTAMYYCARPFDYGGSPGYFDYWGQGTLVTVSS
VL: DIQMTQSPSTLSASVGDRVTITCRASQSIRSWLAWYQQKPGKAPKLLIYKASSLESGVPSRFSGSGSGTEFTLTISSLQPDDFATYYCQQYNTFWTFGQGTKVEIK
notes: Human variable domains from ATX-Gx Alloy transgenic mice; Screened as hybridoma supernatant; also called human IgG1 18H3
